Target: vimentin (Rat2) (UniProt P31000)
Experiment: co-immunoprecipitation with Flag-Beclin 1
Conditions: reference: wild-type Flag-Beclin 1; sites S234,S295

Beclin 1 (from UniProt Q14457) S234A/S295A (AA)
binding against the reference: weaker
